± gives the standard error. Fewer inactive variants are shown than the library holds. Bounds are passed on as bounds.

B1: glmS ribozyme (parent)
chain: AUAAAAGCGCCAGAACUACAGAAAUGUAGUUGACGAGGAGGAGGUUUAUCGAAUUUUCGGCGGAUGCCUCCAAA

Details in all cases: with glucosamine-6-phosphate
Variants of B1 are the subject of series [1]. In words: self-cleavage kobs at 40 uM GlcN6P; higher = faster cleavage; RNA array. Summed up: (§1)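 Weighted Michaelis–Menten fits across concentrations supplied kcat and KM, based on kobs from one- or two-exponential decay fits to normalised per-tile medians. The data came from barcoded ribozyme variants transcribed in situ by E. coli RNA polymerase on sequenced MiSeq chips and tracked at 37 °C by a hybridised Cy3 probe. Glucosamine-6-phosphate (40 μM to 10 mM) in HEPES/KCl/Mg(OAc)2 buffer was flowed in.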

Series [2] covers variants of B1. In words: self-cleavage kobs at 640 uM GlcN6P; higher = faster cleavage; RNA array. Summed up: as §1
Variants of B1 are the subject of series [3]. In words: self-cleavage kobs at 2500 uM GlcN6P; higher = faster cleavage; RNA array. Summed up:
as §1

Series [4] covers variants of B1. The series can be described thus: self-cleavage kobs at 10000 uM GlcN6P; higher = faster cleavage; RNA array. Summed up:
as §1

Variants of B1 are the subject of series [5]. In words: self-cleavage kobs at 160 uM GlcN6P; higher = faster cleavage; RNA array. Summed up: as §1

Regarding G29C U45A, in the series with glucosamine-6-phosphate [1], the “self-cleavage kobs at 40 uM GlcN6P” value worked out at 7.41e-05 ± 2.6e-05 s⁻¹. The “self-cleavage kobs at 640 uM GlcN6P” value with glucosamine-6-phosphate [2] was found to be 0.000828 ± 0.00023 s⁻¹. For the same variant, in the series with glucosamine-6-phosphate [3], the “self-cleavage kobs at 2500 uM GlcN6P” value was determined as 0.000499 ± 0.00024 s⁻¹. The “self-cleavage kobs at 10000 uM GlcN6P” value with glucosamine-6-phosphate [4] amounted to 0.00281 ± 0.00086 s⁻¹.

A52C G60A G66A: in the series with glucosamine-6-phosphate [1], the “self-cleavage kobs at 40 uM GlcN6P” value is less than 1e-05 s⁻¹. For the same variant, in the series with glucosamine-6-phosphate [5], the “self-cleavage kobs at 160 uM GlcN6P” value was less than 1e-05 s⁻¹. Besides, the “self-cleavage kobs at 640 uM GlcN6P” value in the series with glucosamine-6-phosphate [2] is less than 1e-05 s⁻¹.

Take U45G U57C: the “self-cleavage kobs at 40 uM GlcN6P” value in the series with glucosamine-6-phosphate [1] was less than 1e-05 s⁻¹. In the series with glucosamine-6-phosphate [5], the “self-cleavage kobs at 160 uM GlcN6P” value was less than 1e-05 s⁻¹. For the same variant, the “self-cleavage kobs at 2500 uM GlcN6P” value with glucosamine-6-phosphate [3] turned out to be 3.94e-05 ± 1.4e-05 s⁻¹. In addition, the “self-cleavage kobs at 10000 uM GlcN6P” value with glucosamine-6-phosphate [4] is 7.89e-05 ± 9.7e-06 s⁻¹.

Turning to C34G G41A G44U A53U, the “self-cleavage kobs at 40 uM GlcN6P” value with glucosamine-6-phosphate [1] is less than 1e-05 s⁻¹. The “self-cleavage kobs at 10000 uM GlcN6P” value with glucosamine-6-phosphate [4] was less than 1e-05 s⁻¹.

As for C11G C58A A64G, the “self-cleavage kobs at 40 uM GlcN6P” value in the series with glucosamine-6-phosphate [1] is less than 1e-05 s⁻¹.

On to G32U A48U C61U G63U C67U, for which the “self-cleavage kobs at 40 uM GlcN6P” value with glucosamine-6-phosphate [1] was less than 1e-05 s⁻¹. For the same variant, the “self-cleavage kobs at 640 uM GlcN6P” value in the series with glucosamine-6-phosphate [2] is less than 1e-05 s⁻¹. In addition, the “self-cleavage kobs at 10000 uM GlcN6P” value in the series with glucosamine-6-phosphate [4] is less than 1e-05 s⁻¹.

Take C10A U31A C58G C67A: the “self-cleavage kobs at 40 uM GlcN6P” value in the series with glucosamine-6-phosphate [1] came out at 4.23e-05 ± 1.8e-05 s⁻¹. For the same variant, the “self-cleavage kobs at 640 uM GlcN6P” value in the series with glucosamine-6-phosphate [2] amounted to 0.00013 ± 3.4e-05 s⁻¹. The “self-cleavage kobs at 2500 uM GlcN6P” value with glucosamine-6-phosphate [3] came out at 0.000317 ± 0.00016 s⁻¹. The “self-cleavage kobs at 10000 uM GlcN6P” value with glucosamine-6-phosphate [4] was determined as 3.62e-05 ± 1.5e-05 s⁻¹.

In the case of C11G G62C A64G C68G, the “self-cleavage kobs at 40 uM GlcN6P” value in the series with glucosamine-6-phosphate [1] is less than 1e-05 s⁻¹. In addition, the “self-cleavage kobs at 10000 uM GlcN6P” value with glucosamine-6-phosphate [4] is less than 1e-05 s⁻¹.

As for C11G A48G, in the series with glucosamine-6-phosphate [1], the “self-cleavage kobs at 40 uM GlcN6P” value was less than 1e-05 s⁻¹. Moreover, in the series with glucosamine-6-phosphate [5], the “self-cleavage kobs at 160 uM GlcN6P” value is less than 1e-05 s⁻¹. Besides, in the series with glucosamine-6-phosphate [2], the “self-cleavage kobs at 640 uM GlcN6P” value is less than 1e-05 s⁻¹. Moreover, the “self-cleavage kobs at 2500 uM GlcN6P” value in the series with glucosamine-6-phosphate [3] is less than 1e-05 s⁻¹. In addition, in the series with glucosamine-6-phosphate [4], the “self-cleavage kobs at 10000 uM GlcN6P” value was less than 1e-05 s⁻¹.

G9U A36C: in the series with glucosamine-6-phosphate [1], the “self-cleavage kobs at 40 uM GlcN6P” value is less than 1e-05 s⁻¹. Moreover, the “self-cleavage kobs at 640 uM GlcN6P” value with glucosamine-6-phosphate [2] is less than 1e-05 s⁻¹. In addition, the “self-cleavage kobs at 2500 uM GlcN6P” value with glucosamine-6-phosphate [3] was less than 1e-05 s⁻¹. Besides, in the series with glucosamine-6-phosphate [4], the “self-cleavage kobs at 10000 uM GlcN6P” value was less than 1e-05 s⁻¹.

For U49A U57G, in the series with glucosamine-6-phosphate [1], the “self-cleavage kobs at 40 uM GlcN6P” value was less than 1e-05 s⁻¹. The “self-cleavage kobs at 640 uM GlcN6P” value in the series with glucosamine-6-phosphate [2] is less than 1e-05 s⁻¹.

Take G7U U46C C70G: in the series with glucosamine-6-phosphate [1], the “self-cleavage kobs at 40 uM GlcN6P” value was less than 1e-05 s⁻¹. Moreover, the “self-cleavage kobs at 2500 uM GlcN6P” value with glucosamine-6-phosphate [3] was less than 1e-05 s⁻¹. For the same variant, the “self-cleavage kobs at 10000 uM GlcN6P” value with glucosamine-6-phosphate [4] was less than 1e-05 s⁻¹.

Regarding U30C G43C, in the series with glucosamine-6-phosphate [1], the “self-cleavage kobs at 40 uM GlcN6P” value is less than 1e-05 s⁻¹. The “self-cleavage kobs at 160 uM GlcN6P” value with glucosamine-6-phosphate [5] was less than 1e-05 s⁻¹. For the same variant, in the series with glucosamine-6-phosphate [2], the “self-cleavage kobs at 640 uM GlcN6P” value was less than 1e-05 s⁻¹. Further, in the series with glucosamine-6-phosphate [3], the “self-cleavage kobs at 2500 uM GlcN6P” value was less than 1e-05 s⁻¹. In addition, the “self-cleavage kobs at 10000 uM GlcN6P” value with glucosamine-6-phosphate [4] was less than 1e-05 s⁻¹.

In the case of G43C U69C, the “self-cleavage kobs at 40 uM GlcN6P” value in the series with glucosamine-6-phosphate [1] is less than 1e-05 s⁻¹. The “self-cleavage kobs at 160 uM GlcN6P” value in the series with glucosamine-6-phosphate [5] is less than 1e-05 s⁻¹.

For the variant A39G G59U, the “self-cleavage kobs at 40 uM GlcN6P” value with glucosamine-6-phosphate [1] was less than 1e-05 s⁻¹. Moreover, in the series with glucosamine-6-phosphate [5], the “self-cleavage kobs at 160 uM GlcN6P” value is less than 1e-05 s⁻¹. In the series with glucosamine-6-phosphate [4], the “self-cleavage kobs at 10000 uM GlcN6P” value is 5.72e-05 ± 9.8e-06 s⁻¹.

For the variant G43A G51U G63C A64G, the “self-cleavage kobs at 40 uM GlcN6P” value with glucosamine-6-phosphate [1] is less than 1e-05 s⁻¹. Besides, the “self-cleavage kobs at 640 uM GlcN6P” value in the series with glucosamine-6-phosphate [2] is less than 1e-05 s⁻¹. Also, the “self-cleavage kobs at 2500 uM GlcN6P” value with glucosamine-6-phosphate [3] was less than 1e-05 s⁻¹.

Regarding G9C U47G, the “self-cleavage kobs at 40 uM GlcN6P” value in the series with glucosamine-6-phosphate [1] is less than 1e-05 s⁻¹. Further, the “self-cleavage kobs at 10000 uM GlcN6P” value in the series with glucosamine-6-phosphate [4] is less than 1e-05 s⁻¹.

On to A42G U45G, for which the “self-cleavage kobs at 40 uM GlcN6P” value with glucosamine-6-phosphate [1] is 0.000836 ± 0.00024 s⁻¹. For the same variant, the “self-cleavage kobs at 10000 uM GlcN6P” value in the series with glucosamine-6-phosphate [4] came out at 0.0514 ± 0.014 s⁻¹.

Regarding U31G C34U G59A, the “self-cleavage kobs at 40 uM GlcN6P” value with glucosamine-6-phosphate [1] was less than 1e-05 s⁻¹. The “self-cleavage kobs at 640 uM GlcN6P” value with glucosamine-6-phosphate [2] is less than 1e-05 s⁻¹. Further, the “self-cleavage kobs at 2500 uM GlcN6P” value in the series with glucosamine-6-phosphate [3] is less than 1e-05 s⁻¹. For the same variant, in the series with glucosamine-6-phosphate [4], the “self-cleavage kobs at 10000 uM GlcN6P” value was less than 1e-05 s⁻¹.

For the variant G41U G63A, the “self-cleavage kobs at 40 uM GlcN6P” value with glucosamine-6-phosphate [1] is less than 1e-05 s⁻¹. Further, in the series with glucosamine-6-phosphate [2], the “self-cleavage kobs at 640 uM GlcN6P” value is less than 1e-05 s⁻¹. The “self-cleavage kobs at 2500 uM GlcN6P” value with glucosamine-6-phosphate [3] was less than 1e-05 s⁻¹. For the same variant, the “self-cleavage kobs at 10000 uM GlcN6P” value in the series with glucosamine-6-phosphate [4] was less than 1e-05 s⁻¹.

Consider A53U U54C C67A, for which, in the series with glucosamine-6-phosphate [1], the “self-cleavage kobs at 40 uM GlcN6P” value was determined as 0.000138 ± 2.9e-05 s⁻¹. Besides, the “self-cleavage kobs at 10000 uM GlcN6P” value with glucosamine-6-phosphate [4] came out at 0.00429 ± 0.0016 s⁻¹.

The record behind these values is the supplement of paper PMC7125110.
